Patent publication US20250136688A1 (Janssen / Centocor, published 2025)

Legend:
[1] = biological target: T1, Human CD3 epsilon (human, UniProt P07766 23-207); assay: flow cytometry on T cells of healthy human donor 110042496
T1 construct: Stood on human T cells (pan-T cells, isolated donor T cells) as part of the TCR/CD3 complex; the other chains of the complex are not written here; also called CD3ε; CD3R

[2] = biological target: T1, Human CD3 epsilon; assay: flow cytometry on T cells of healthy human donor 110042593
[3] = biological target: T2, ectonucleotide pyrophosphatase/phosphodiesterase family member 3 (ENPP3) (human, UniProt O14638 1-875); assay: cell-based or functional assay
T2 sequence (looked up): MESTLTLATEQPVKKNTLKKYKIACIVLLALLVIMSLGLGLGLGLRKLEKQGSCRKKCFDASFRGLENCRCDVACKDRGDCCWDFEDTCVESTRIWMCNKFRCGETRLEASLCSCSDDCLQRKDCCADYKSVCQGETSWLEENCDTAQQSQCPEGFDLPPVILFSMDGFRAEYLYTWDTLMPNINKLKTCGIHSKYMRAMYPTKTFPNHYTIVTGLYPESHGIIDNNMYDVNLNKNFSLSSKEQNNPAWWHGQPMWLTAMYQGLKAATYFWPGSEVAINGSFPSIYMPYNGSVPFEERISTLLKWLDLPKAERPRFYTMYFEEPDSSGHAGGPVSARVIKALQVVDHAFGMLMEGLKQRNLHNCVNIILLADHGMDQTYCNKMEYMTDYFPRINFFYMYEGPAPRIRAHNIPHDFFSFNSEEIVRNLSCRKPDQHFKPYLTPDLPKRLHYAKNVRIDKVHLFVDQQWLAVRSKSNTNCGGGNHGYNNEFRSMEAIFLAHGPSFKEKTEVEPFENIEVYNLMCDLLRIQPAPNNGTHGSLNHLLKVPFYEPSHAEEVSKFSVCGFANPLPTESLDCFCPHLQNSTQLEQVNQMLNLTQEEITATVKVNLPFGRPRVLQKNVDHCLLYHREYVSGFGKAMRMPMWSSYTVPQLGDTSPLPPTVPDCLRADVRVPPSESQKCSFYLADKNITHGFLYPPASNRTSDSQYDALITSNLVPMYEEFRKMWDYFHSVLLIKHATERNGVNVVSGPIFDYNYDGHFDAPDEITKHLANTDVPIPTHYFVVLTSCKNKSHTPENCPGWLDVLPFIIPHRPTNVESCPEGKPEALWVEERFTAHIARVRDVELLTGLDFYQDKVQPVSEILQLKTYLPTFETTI

T1 sequence (P07766 23-207 limits assumed): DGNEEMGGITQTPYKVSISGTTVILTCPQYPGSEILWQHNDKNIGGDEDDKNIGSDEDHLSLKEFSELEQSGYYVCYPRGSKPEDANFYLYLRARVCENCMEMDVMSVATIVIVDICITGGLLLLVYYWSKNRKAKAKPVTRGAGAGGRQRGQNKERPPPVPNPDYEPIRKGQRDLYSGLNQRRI

B1: NPP3B815 (NPP3B56×CD3B2030-N106A-spFv) (bispecific antibody, human IgG1, kappa, L234A L235A)
chain: EIVLTQSPATLSASPGERVTLSCSASSSVSYMNWYQQKPGCAPRRWIYDSSKLASGVPARFSGSGSGRDYTLTISSLEPEDFAVYYCQQWSRNPPTFGGGTKVEIKGGGSGGSGGCPPCGGSGGQVQLVQSGAEVKKPGSSVKVSCKASGYTFTRSTMHWVKQAPGQGLEWIGYINPSSAYTNYNQKFQGRVTLTADKSTSTAYMELSSLRSEDTAVYYCASPQVHYDYAGFPYWGCGTLVTVSSEPKSSDKTHTCPPCPAPEAAGGPSVFLFPPKPKDTLMISRTPEVTCVVVSVSHEDPEVKFNWYVDGVEVHNAKTKPREEQYNSTYRVVSVLTVLHQDWLNGKEYKCKVSNKALPAPIEKTISKAKGQPREPQVYTLPPSREEMTKNQVSLWCLVKGFYPSDIAVEWESNGQPENNYKTTPPVLDSDGSFFLYSKLTVDKSRWQQGNVFSCSVMHEALHNHYTQKSLSLSPGK
heavy: EVQLVESGGGRVKPGGSLRLSCAASGFTFSDYSMNWVRQAPGKGLEWVSSISSISSYVKYADSVKGRFTMSRDNAKNSLFLQMNSLRDEDMAVYYCARGHYFDYWGQGTLVTVSSASTKGPSVFPLAPSSKSTSGGTAALGCLVKDYFPEPVTVSWNSGALTSGVHTFPAVLQSSGLYSLSSVVTVPSSSLGTQTYICNVNHKPSNTKVDKKVEPKSCDKTHTCPPCPAPEAAGGPSVFLFPPKPKDTLMISRTPEVTCVVVSVSHEDPEVKFNWYVDGVEVHNAKTKPREEQYNSTYRVVSVLTVLHQDWLNGKEYKCKVSNKALPAPIEKTISKAKGQPREPQVYTLPPSREEMTKNQVSLSCAVKGFYPSDIAVEWESNGQPENNYKTTPPVLDSDGSFFLVSKLTVDKSRWQQGNVFSCSVMHEALHNRFTQKSLSLSPGK
light: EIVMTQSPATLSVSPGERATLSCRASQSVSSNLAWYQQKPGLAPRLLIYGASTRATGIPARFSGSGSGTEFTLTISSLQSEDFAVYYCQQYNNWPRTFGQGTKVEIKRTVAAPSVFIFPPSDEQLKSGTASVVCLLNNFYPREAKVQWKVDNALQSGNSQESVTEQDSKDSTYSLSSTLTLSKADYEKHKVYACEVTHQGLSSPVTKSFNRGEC
notes: Heavy Chain 1 = anti-CD3 spFv-Fc (knob); Heavy Chain 2 and Light Chain = anti-ENPP3 Fab arm NPP3B56 (hole); IgG1 with L234A, L235A, D265S; also called ENPP3×CD3
- EC50 [1]: 147 nM
- EC50 [2]: 146 nM
- T-cell activation (Flow Cytometry) EC50, A704 [3]: 0.011 nM
- T-cell activation (Flow Cytometry) EC50, HepG2 [3]: 0.041 nM
- T-cell activation (Flow Cytometry) EC50, VMRCRCW [3]: 0.018 nM
- Tumor cell killing (Incucyte) EC50, A704 [3]: 0.03 nM
- Tumor cell killing (Incucyte) EC50, HepG2 [3]: 0.53 nM
- Tumor cell killing (Incucyte) EC50, TUHR4TKB [3]: 0.05 nM
- Tumor cell killing (Incucyte) EC50, TUHR10TKB [3]: 0.02 nM
- Tumor cell killing (Incucyte) EC50, VMRCRCW [3]: 0.13 nM
